Experimental data from publication PMC7280502, “Structure and mechanism of the Nap adhesion complex from the human pathogen Mycoplasma genitalium” (Nature Communications, 2020).

Key:
[1] = biological target: P140–P110 heterodimer of the purified Nap complex (full-length proteins, P110His strain) (Mycoplasma genitalium G37 (endogenous) | Mycoplasma genitalium G37) (UniProt P20796); experiment: cryo-EM structure; single-particle cryo-EM of the Nap complex purified from the M. genitalium P110His strain in octylglucoside, 25 μg/ml; 9.8 Å; rigid-body fitting of P140 alone and P110 alone; closed conformation
[2] = biological target: T1, extracellular region of P140 (residues 23–1351) (Mycoplasma genitalium (strain G37), UniProt P20796 23-1351); experiment: crystal structure; P140 and P110N mixed 1:1 and incubated 30 min at room temperature; crystals from 23% PEG 500MME, 4% PGA, 0.1 M sodium cacodylate pH 6.5, 20 °C; space group P2(1), four heterodimers in the asymmetric unit; 2.65 Å; settings: both partners purified
T1 construct: also called extracellular P140; source: E. coli B834 (DE3), purified (Histrap, Superdex 200), same protocol as for P110N
T1 sequence: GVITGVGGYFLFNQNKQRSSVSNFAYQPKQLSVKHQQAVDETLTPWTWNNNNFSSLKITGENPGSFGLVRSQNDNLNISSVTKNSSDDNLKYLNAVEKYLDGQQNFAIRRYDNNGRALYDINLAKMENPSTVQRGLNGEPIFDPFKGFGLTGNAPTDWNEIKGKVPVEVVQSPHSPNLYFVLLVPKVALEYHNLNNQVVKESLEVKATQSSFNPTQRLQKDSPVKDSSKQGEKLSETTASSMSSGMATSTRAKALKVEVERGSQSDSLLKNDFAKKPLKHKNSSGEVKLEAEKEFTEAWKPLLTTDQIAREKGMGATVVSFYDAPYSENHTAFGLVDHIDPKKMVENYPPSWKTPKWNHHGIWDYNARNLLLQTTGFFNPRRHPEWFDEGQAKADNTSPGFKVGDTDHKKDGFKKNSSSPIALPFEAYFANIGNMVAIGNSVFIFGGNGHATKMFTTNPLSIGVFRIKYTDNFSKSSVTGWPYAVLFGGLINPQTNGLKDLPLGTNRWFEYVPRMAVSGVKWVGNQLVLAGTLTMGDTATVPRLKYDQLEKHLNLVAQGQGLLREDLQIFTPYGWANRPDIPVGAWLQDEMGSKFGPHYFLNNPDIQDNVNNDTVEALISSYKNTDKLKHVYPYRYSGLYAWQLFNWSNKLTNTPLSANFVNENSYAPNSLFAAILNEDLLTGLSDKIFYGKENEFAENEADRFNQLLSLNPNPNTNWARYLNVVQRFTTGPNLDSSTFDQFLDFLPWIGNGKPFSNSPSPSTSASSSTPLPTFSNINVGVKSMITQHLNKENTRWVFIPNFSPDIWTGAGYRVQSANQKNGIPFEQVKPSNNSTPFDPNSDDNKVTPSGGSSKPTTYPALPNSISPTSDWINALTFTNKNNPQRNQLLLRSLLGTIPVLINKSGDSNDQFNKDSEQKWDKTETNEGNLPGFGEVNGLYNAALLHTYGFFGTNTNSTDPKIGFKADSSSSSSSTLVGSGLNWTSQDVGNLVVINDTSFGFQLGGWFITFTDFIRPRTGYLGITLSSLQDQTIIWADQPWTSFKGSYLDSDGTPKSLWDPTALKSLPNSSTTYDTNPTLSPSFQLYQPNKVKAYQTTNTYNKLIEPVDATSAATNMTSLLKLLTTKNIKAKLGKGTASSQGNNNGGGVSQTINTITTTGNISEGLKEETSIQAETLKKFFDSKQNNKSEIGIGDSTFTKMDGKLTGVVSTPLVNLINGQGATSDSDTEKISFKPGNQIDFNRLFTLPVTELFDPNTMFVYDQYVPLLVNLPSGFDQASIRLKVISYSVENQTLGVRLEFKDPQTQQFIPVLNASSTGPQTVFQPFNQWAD

[3] = biological target: T1, extracellular region of P140 (residues …); experiment: cryo-EM structure; single-particle cryo-EM of the purified P140–P110 heterodimer (complete extracellular regions) at 20 μg/ml; 4.1 Å, non-isotropic; X-ray P140–P110N structure fitted as a rigid body; settings: both partners purified

Q: “P140–P110 heterodimer of the purified Nap complex (full-length proteins, P110His strain), P20796 59-1444; P22747 26-1053” was tested. Which stoichiometry N [1] did it give?
A: 2

B1: N-terminal domain of P110 (P110N: residues 23–827) (domain or fragment)
chain: ALANTFLVKEDSKNVTAYTPFATPITDSKSDLVSLAQLDSSYQIADQTIHNTNLFVLFKSRDVKVKYESSGSNNISFDSTSQGEKPSYVVEFTNSTNIGIKWTMVKKYQLDVPNVSSDMNQVLKNLILEQPLTKYTLNSSLAKEKGKTQREVHLGSGQANQWTSQRNQHDLNNNPSPNASTGFKLTTGNAYRKLSESWPIYEPIDGTKQGKGKDSSGWSSTEENEAKNDAPSVSGGGSSSGTFNKYLNTKQALESIGILFDDQTPRNVITQLYYASTSKLAVTNNHIVVMGNSFLPSMWYWVVERSAQENASNKPTWFANTNLDWGEDKQKQFVENQLGYKETTSTNSHNFHSKSFTQPAYLISGIDSVNDQIIFSGFKAGSVGYDSSSSSSSSSSSSTKDQALAWSTTTSLDSKTGYKDLVTNDTGLNGPINGSFSIQDTFSFVVPYSGNHTNNGTTGPIKTAYPVKKDQKSTVKINSLINATPLNSYGDEGIGVFDALGLNYNFKSNQERLPSRTDQIFVYGIVSPNELRSAKSSADSTGSDTKVNWSNTQSRYLPVPYNYSEGIIDADGFKRPENRGASVTTFSGLKSIAPDGFANSIANFSVGLKAGIDPNPVMSGKKANYGAVVLTRGGVVRLNFNPGNDSLLSTTDNNIAPISFSFTPFTAAESAVDLTTFKEVTYNQESGLWSYIFDSSLKPSHDGKQTPVTDNMGFSVITVSRTGIELNQDQATTTLDVAPSALAVQSGIQSTTQTLTGVLPLSEEFSAVIAKDSDQNKIDIYKNNNGLFEIDTQLSNSVATNNGGL
notes: P110, product of gene MG_192 of Mycoplasma genitalium strain G37, residues 23–827 (N-terminal domain), amplified from a synthetic clone and cloned into pOPINE; source: E. coli B834 (DE3), purified (Histrap, Superdex 200)
Q: Does B1 bind [2]?
A: binds

B2: extracellular region of P110 (residues 23–938) (domain or fragment)
chain: ALANTFLVKEDSKNVTAYTPFATPITDSKSDLVSLAQLDSSYQIADQTIHNTNLFVLFKSRDVKVKYESSGSNNISFDSTSQGEKPSYVVEFTNSTNIGIKWTMVKKYQLDVPNVSSDMNQVLKNLILEQPLTKYTLNSSLAKEKGKTQREVHLGSGQANQWTSQRNQHDLNNNPSPNASTGFKLTTGNAYRKLSESWPIYEPIDGTKQGKGKDSSGWSSTEENEAKNDAPSVSGGGSSSGTFNKYLNTKQALESIGILFDDQTPRNVITQLYYASTSKLAVTNNHIVVMGNSFLPSMWYWVVERSAQENASNKPTWFANTNLDWGEDKQKQFVENQLGYKETTSTNSHNFHSKSFTQPAYLISGIDSVNDQIIFSGFKAGSVGYDSSSSSSSSSSSSTKDQALAWSTTTSLDSKTGYKDLVTNDTGLNGPINGSFSIQDTFSFVVPYSGNHTNNGTTGPIKTAYPVKKDQKSTVKINSLINATPLNSYGDEGIGVFDALGLNYNFKSNQERLPSRTDQIFVYGIVSPNELRSAKSSADSTGSDTKVNWSNTQSRYLPVPYNYSEGIIDADGFKRPENRGASVTTFSGLKSIAPDGFANSIANFSVGLKAGIDPNPVMSGKKANYGAVVLTRGGVVRLNFNPGNDSLLSTTDNNIAPISFSFTPFTAAESAVDLTTFKEVTYNQESGLWSYIFDSSLKPSHDGKQTPVTDNMGFSVITVSRTGIELNQDQATTTLDVAPSALAVQSGIQSTTQTLTGVLPLSEEFSAVIAKDSDQNKIDIYKNNNGLFEIDTQLSNSVATNNGGLAPSYTENRVDAWGKVEFADNSVLQARNLVDKTVDEIINTPEILNSFFRFTPAFEDQKATLVATKQSDTSLSVSPRIQFLDGNFYDLNSTIAGVPLNIGFPSRVFAGFAALP
notes: P110, product of gene MG_192 of Mycoplasma genitalium strain G37, residues 23–938 (complete extracellular region), amplified from a synthetic clone; source: E. coli B834 (DE3), purified (Histrap, Superdex 200), same protocol as for P110N
Q: Does B2 bind [3]?
A: binds
